Experimental data: the NTF2 design screens of Basanta et al. (2020)

Assay: protease stability score; higher = more stable; yeast display proteolysis, trypsin and chymotrypsin;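 note: log10 excess protease needed over predicted unfolded state with 0 meaning unfolded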

| Sequence | protease stability score |
| --- | --- |
| DEKDVEKIMKKMDETFVKGNTEELEKLGKEDVEVQYGDKREKGPDAIRKVLEKVKQLGIKVEYKEVHIKGDTATVKVEADMAGQTARFEVTYVVRGNRVDRVVVKYDEEAQKVIKHG | 0.772 |
| DEKDVEKLQRLIKTGNEDHIANEADPNVQVTIGDDVIHGREEAVRQIQKWQRQVDHVEIKSMESQGEKVHVRRVLTVNGKNFEFTLQAEMHNGTLTHFDIQFRSEEDNKRFLKVVS | 0.32 |
| DEKDVERVLEAIKTNNRSEIRNQADPNARARVGDKKLHGMEDAAHKFAKFLDRADNHEVKDVSVDGDRATMDVKVRVDGEDVRFVVKFQVKNGRITHLEVEATSDHVDRRAEQAMK | 0.581 |
| DEKDVHLARKYYQNFRDGDPDKLKRMADKDAKMSVGDKHLHGMEKIATDLQREHEEMHIDRKIDDVKVNGDKAIVHLKVNINVDGKPTSDSVTVIFKFENGKITTLEYRFDPDKQRKINK | 0.294 |
| DEKDVKTAVKDFNTGSFDRFKDLADKDVTARIGNHTVKGHENFQHMMKNLKDRIDHFDVDSMTIKGNEAQMEYRFEINGHDIVVILRVDIHNGRIKHMEVEFRNEEQKKRFDDNQG | 0.945 |
| DEKDVRILEEYVNAWNTNDPDTLNNLADPNARFKIGNKEFQGRDTLDRLAKQLRKEMRVTVHDVHAKDDDGRVDAKVDAVMHYNGKPNRDTFHFDAKVHNGRIRELNVQFDEKRKKKVDS | -0.065 |
| DEKDVRRLSKYLRALQKNDPDEVRRMADPNAKAEVGDKRIHGRDEFSKHVETRRRQMRITIEHYEIKNQGDKVELNVVRRSEHNGKPRRNSVRATYVFDNGKIHSYSVKHVP | -0.133 |
| DEKEAEHVSRLVRENDFQTLRDQADKDARVRIGDREVHGRERLRSQLHKLERRIDSLEVHRVNNHPNHFHVDVVITVNGQKVTFRLNIHVHNGRIKSIEIEFTDEDQKRNMNEVFS | -0.081 |
| DEKEAKKLLEQFAKKVVNGDYEEVVKHVKDDGEAEYGDERKHGPDAVETFIRKYQKLGIKVTYDEVHVEGDTVTVKVRADYAGQTAHFKFQYHVRDQRLDRVEVKYDETAQKMIKHG | 0.542 |
| DEKEAQKLLEKIAKTMKNGDTETAKKLGKDDVEVKYADDEHHGPDAIKKMLEKLKKLGLEVEYKEIHVEGDTVRVKVQVHHGGTTAHMEVEYQARGRKVDNMRVKYDERAKKLIKHG | 0.471 |
| DEKEDKKVLERMAKLFVSGNKEEVQKMGKDDVEVVYGDETYHGPDAARKVIERVKKLGAKVEYKEVHVEGDTMTAKVEADIAGKRVRFHVTYKATGNRVDRMEVKYTKEAQEVIKHG | 0.895 |
| DEKEDLTRWIEQFVHNLEHGDEERLSQLADPNARFKYGDRTLHGMENAIKTLADVMRRVDQVRIRINDITHHENRVIVDLSFVLNHNGQERHYNAKMVAYIHNGTFRIETASMK | 0.929 |
| DEKEDRKLLQQLAEMFQNGDVERVRKLGKDDVEAEYGDERQHGPDAMKKFVERVKKLGAKVEYKEVHVEGDTVTAKVQADYAGQTVEMHVTYQAQGRRMDRVKVKYDETAQKVIKHG | 0.566 |
| DEKEEAEKFFEQYKHALHRGDPDQMANLADKDVRAEIGDKVVHGRDQLMTYVKTLKEHYDDISLKLKDVQVSGDKAQLHAVLTLNHNGKNDKIHIVIRMVRQGDELVMTSITYR | 0.935 |
| DEKEEAHRALTAMHKMMTGDFKEVMKNADENVHVEIGDKEFHGREDLHDFAREIQERVDDFRVSSVTAKGDSAVLNVRQDYNGRNERVRLEVQVSNGKIKHVRFQTG | -0.341 |
| DEKEEARELMERLREIIETGNEREAKKLADKDARNNVGDKVLHGREEIVRQLITLYKTADHVDLKFRDYRVDNGKFTMDMKVRFHHNGNTIERRYQMSFDTHNGRLTATRYRNS | 1.06 |
| DEKEHATEWLEDWQQQLRTGDEKSVANLFDPNARLNVGDKEVHGREDFEKEQKKIREEADHVDVEIVDLKTSPGHIQMFFNLRQTHNGQRQSHREVMVLRLQGDEVRVVKVEHN | -0.056 |
| DEKEHEDVAQEAVHAVQSGDPKQMVEMADPNARVVVGDKTLHGHDRIEEMVKHLRKRADHVRIIDVQVQGDKVVIRFQVVVDGRTYDVYIDLRVHNGEAKEIRFDPRRQKEMHG | 0.758 |
| DEKEIHEIAETFVEVLRNGNHDDLKELMDENVKLVYGDKELQGHHRAASHLAELVSRVDHMSVDSITVNGDSVKVIMQFVVNGVTAHITIIIKMTNGRIKELEIRYTNEDQRRQVDK | 0.941 |
| DEKEIQKLLEQLMKMFVNGNDEQIKKLGKDDVEATYMDEKVTGPDKVVELVKKYMDLGVKVEYKEEHVEGDKATAKVEADAGGQTVRFHVHYKATGRKMDRVEVQYDETAKKVIKHG | -0.131 |
| DEKEIRKLLETMLKAFVNGNLEVVRKMLKDDGEVEYLDTRRHGPDRAVELVKRLLDLGYEVEYKEVHVKGDTVTANVEANADGKTVRFQVTYQARGRRVDNFKVKYDEDAQKVIKHG | 1.79 |
| DEKEIRKLLQKMAKMFEEGNNEELRKLGDDDLQVTYGDEEYKGPDDLVKVLETVKKLGAKVEYKEVHVEGDTVTVKVEAEMGGRKARYKVKYQADGNKVKRFQVEYSEDAQKAIKEG | 1.28 |
| DEKEKAEDFMRKMQKIAKTNNPTELDDQFDEDAKLVVGDKRYHGRKQMQKHYKELRKRVDHFRLEVKRIDVSGDKVRFDAKYEADVNGRRETVDMRFVVRRVGDKDRAENAQWK | 0.285 |
| DEKEKAKKMFEKWHDVWRTNDPKKMNELADKDARINVGEKNYHGREHVEKIWRDLMERIDHVQLRVQTITSTGDKVEIRATVVIDHNGKQDEDTYVYVFQIDNGTVSFVQVRQS | 0.576 |
| DEKEKLKQLARKFHKAMQTGDEDELKKNVDENVRADYGDRRYHGSEELAKWLREMKTKVDHLSMTIKDIRVKGDRAEIELEMTFDHNGRQETRQFTLQAQVHNGSLKIVQIRQS | 1.32 |

| Sequence | protease stability score |
| --- | --- |
| DEKELKKVLERLVKAFKNGNTEEAKKLGKDDVQVEYGDEKYEGPDAMRTVLERVKKLGYEVEYKEEHYKGDTVTVKVEANLGGRTAKFRFQYQVQGQRVDKVKVEYSETAQKQIKHG | -0.106 |
| DEKELKKVLKTVVEYLKNGKAERVVKHLHDDVQVIYDDEEVHGADKFKEMVEKFQKLGYKVEYKEVHVEGDTATVKVQVDAGGETAEFHVTYQATGQKVDRMEVKYDERAQKVIKHG | 1.14 |
| DEKELNDLKRVVRHGDEDRLEELMDEDVRMKVGNKEISGRSHAVKVMKKLNEKADHIEIKDIKISGEKVVVDLVFEVNGTKIKMRLIIVVRNGKIKHAQIEVTDEEVEDNLHKFLD | 0.972 |
| DEKELQKVLQKVMKLFQNGNIEELQKVVKDDVQLRYADKEYHGPDAVKTVVKRYRDLGAKVEYDELHVEGDKATAKVRADYGGTTVRMKVTYKVTGQKVDRMQVKYDEKAQKQIKHG | -0.142 |
| DEKEMQEFAKEVVKMLQTGDERKNERNVDKDVRVKIGEKVLHGREDNSKWIQEWRDRVDHIRIDHVHVHGEKVIVTVTAVVNGVEVEFQMVMEVHNGRAENVQVKYRNPDELRRFKS | -0.263 |
| DEKENKKLATELNQNLQTGDPDKLARLADPNARAQYGETTYHGRSQIKTMWETLSRQVDNVELKHMHVQGNEVEVVLTFNVNGKEYELRITASFKNGRLKDLQIDPDEIQRAEK | 0.4 |
| DEKEQADDAVRQLESAFNQGDWKKLADLFDENARVQYGDKELHGRQKWTTLVRDMEREHDHVEARVKSVHYHNGKIHLKIEIKAETNGRTTSVHVRYVAVVTNGRVEFENAKYS | 0.973 |
| DEKEQEDFARSFIEAFRTNDPSQIKTLMDEEATVSVGDKTYHGRKAAEDWATQLKEEVDHIDVKDLKVHNGHIEIEVRLKVNGHTRDYLISIQFHNGRVKRMSVSKQ | -0.432 |
| DEKEQEVLDRFMRALRTGNPDDADKNVDKDVNVRYGDRTIKGRESFHEEIRREHQEIRLDYRSVNNQVHNGQANVDVDAIWNVNGRPHRVKVHIRAQIHDGRIKHQRFRMDPEEKKRVDS | 0.054 |
| DEKEQKENAKKMADAIERGDPDKLSELMDENAKVTVGDKTIHGRRQAHEWLKEFRDQADHVEIKEFTVNGNRVIIHVKVRHNGSESERVMTVSWHNGKVKSASFRSN | 0.63 |
| DEKEQTDILLRAMQILTHGDEKRFEELADPNVHVDVGDKTVHGRTQARKWYHDLRRQVDRIHIKHVTVKNGRATIDVVFDRNGRKEKMVLVIQAHNGKIKRAKVEES | -0.125 |
| DEKESADRMIQRLQELMDQNNEEEIKNEVDENARAVVGDKEYHGDEQFAKALITVVKQYDHISIQIRSFTHTNGKNVATFEATFHHNGKNDTVKIEVVFDEVNGRHNLVRLVMK | 1.22 |
| DEKETHKVLEKIEKVLHNFNIDEAKKVLKDDVRVQYLDEEYHGPDAAEKRLTKVKKLGAQVEYKEAHVEGNRVKAKVQVNVGGRTLEFTVEYTAKGHKVDEFRVQYDEDAQKTIKHG | 0.76 |
| DEKETKKVLEQAAKLFVNGDVHRVMQLGADDVEVEYGDERYHGKDAAKRVIEKHQKLGIKVEYDELHVEGDRVKAKVRADQAGTTAHFTFEYKATGQRVDKMRVKYDETAQKMIKHG | -0.23 |
| DEKETKKVLERIVKIFENGNAEEAKKMGKEDVEVEYGDETKHGPDALYEFIEKMKKLGAKVEYKEVHVEGDKVTVRIQADYGGRRAEMHVTYQATGNRVDNVKLKYSKTAQEMIKHG | 0.084 |
| DEKETQKLLEKLAKYFVNGDLEKVKKVGKEDVEVEYGSERKHGPDAMKEHVETHKRLGIEVRYEEVHVEGDTVTAKVQADVAGHTAEMTVVYQAQGRRVDKVKLKYSEKAQKAIKHG | -0.133 |
| DEKETRKLLKDVAEAFENGNNEEIKKLLKDDVEVQYADKRVHGPDQVVEMVKKYQDLGAKVEYKKLDVRGDTVTVDVQADLGGRTAEFKVTYQAQGQKVDRFKVKYDETAKKLIKHG | 0.22 |
| DEKEVATRFVKTVVEILRRGNPDDWMKLVDPNATAHYGDKTYHGREELKTLMEDRNRHADRIDVDVKSYDAHNGKVQVHVVVVQTHNGRSTTHEVRIVADLHNGDAKIRSIQEQ | 0.713 |
| DEKEVKDADKEMERLMKKNDFQHIVDQMDPNAKIIVGDQDLHGKEEAEKVAQEMDKQIDSIEVKSVHAHGDKAVVHFVNHHNGRNKRVVITLRWSNGRIQEMQIQDQ | -0.157 |
| DEKEVKDNAHDLFRAMQTGDEQEIENLMDENVEAQVGDTTWHGREEAARELVLTQKRYDRVRVDRIQVTGEDVKIDFKLNIDGTKETHILVMRVHNGKIVSMSNETR | 1.51 |
| DEKEVQKVLETMAKMFVNGNNEEVKKLGHDDIQVQYGDEEKHGPDAMVDFIKKYQDLGAEVEYKHLKVEGNEVEVDVEATLGGKTVRYKVKYEATGHKVHRVEVKYTDEAKDAIKKG | 0.657 |
| DEKEYAEQFFRHMEEIYQNGDEDRAQELFDPNARMEVGDKEVHGNEKFREEIHKIKETSDRFSIRVKEIDVHGDKIVVEAERSFEHNGQRRSEVYTVRMVIENGQAKIKSAHHK | 0.235 |
| DEKFKEAVERFIKALQDNNHKEMKDNADPNVKAQVGDSEVHGMDEMLRQLYKRYQELRVSYKHLSITVRGDKVEIRASVKLVHNGTPTEREVSVEVEAKNGRIKSMRINNTK | 0.493 |
| DEKHAHKIVRAWSQGDPDQLAELADPNVRLVVGDKTYDGRESFVKWLKDLRKRIDHVRVDSVKINGNKIEIDMRFQVDGVHLVVTVDIEFKNGKIKDVRIQYRDEEQLKDIKKVVR | 1.2 |
| DEKHAQHAAEIAEQGDPDEWEELADKDVKVDIGDQRVHGREQASSFWRKLREQADTIEYKSYRVDNGRVQLDFVVDINGHRLEFTLRFVVDNGRITEMEVQARDERQNEELKKIDS | 0.524 |
